Stoichiometry N data for one substance are collected here from publication doi:10.1101/2021.06.29.450403.

In the test the target is recombinant rAQP4ct protein (complete cytosolic C-terminal domain of human AQP4, residues 254-323) (human) (UniProt P55087). The test can be described thus: ITC.

Take “Chicken calmodulin (CaM) (from UniProt P62149 1-149) (natural protein)”: the stoichiometry N – broadly, the number of molecules, sites or subunits per partner or assembly – is 1.
